# Measurements as given in patent US20240117073A1, “METHODS OF TREATING NEOPLASTIC ASTROCYTOMA” (Ludwig Institute for Cancer Research Ltd., priority 2009, published 2024).
# “Also recorded” adds a separate entry of the source.
# B1: mAb806: murine monoclonal antibody recognizing de2-7 EGFR and amplified EGFR; VH SEQ ID NO:2, VL SEQ ID NO:4 (antibody, listed as Mus musculus, V domains shown)
# VH: MRVLILLWLFTAFPGVLSDVQLQESGPSLVKPSQSLSLTCTVTGYSITSDFAWNWIRQFPGNKLEWMGYISYSGNTRYNPSLKSRISITRDTSKNQFFLQLNSVTIEDTATYYCVTAGRGFPYWGQGTLVTVSA
# VL: MVSTAQFLAFLLLWFPGARCDILMTQSPSSMSVSLGDTVSITCHSSQDINSNIGWLQQRPGKSFKGLIYHGTNLDDEVPSRFSGSGSGADYSLTISSLESEDFADYYCVQYAQFPWTFGGGTKLEIKR
# What was measured:
# [1] = test system: HN5 head and neck cell line; assay: FACS binding to cell lines; format: cell-based, human
# DU145 xenografts = assay: established xenograft model; format: in vivo, nude mice; details: day 67; 1 mg i.p.
# Source text: Xenografts were allowed to establish for 18 days before therapy commenced (3 times a week for 3 weeks on days indicated). At this time the average tumor volume was 90 mm^3 (FIG. 68D).
# A431 xenografts = assay: combination therapy with AG1478, preventative model; format: in vivo, mice; details: 0.1 mg mAb806; 400 μg AG1478
# Protocol: AG1478 (4-(3-Chloroanilino)-6,7-dimethoxyquinazoline) is a potent and selective inhibitor of the EGFR kinase versus HER2-neu and platelet-derived growth factor receptor kinase (Calbiochem Cat. No. 658552). […] The results are illustrated in FIG. 12. […] 400 μg AG1478 was administered at 0, 2, 4, 7, 9, and 11 days post xenograft.
# [2] = test system: glioblastomas not preselected for their EGFR status; assay: immunohistochemistry of 46 unselected glioblastomas; parameters: species or system human
# Protocol: Immunohistochemical analysis was performed using 5 mm sections of fresh frozen tissue applied to histology slides and fixed for 10 minutes in cold acetone. Bound primary antibody was detected with biotinylated horse anti-mouse antibody followed by an avidin-biotin-complex reaction. Diaminobenzidine tetra hydrochloride (DAB) was used as chromogen. The extent of the immunohistochemical reactivity in tissues was estimated by light microscopy and graded according to the number of immunoreactive cells in 25% increments as follows: • Focal=less than 5% • +=5-25% • ++=25-50% • +++=50-75% • ++++=>75%
# wtEGFR = molecular target: T1, wtEGFR (Homo sapiens, UniProt P00533); assay: immunoblotting of cell lysates; format: binding
# T1 construct: host or cells: cell lysates
# xenograft A431 = assay: immunohistochemistry of xenograft sections; parameters: species or system human
# Protocol: (§1) Xenografts were excised and bisected. One half was fixed in 10% formalin/PBS before being embedded in paraffin. Four micron sections were then cut and stained with haematoxylin and eosin (H&E) for routine histological examination. The other half was embedded in Tissue Tek® OCT compound (Sakura Finetek, Torrance, CA), frozen in liquid nitrogen and stored at −80° C. Thin (5 micron) cryostat sections were cut and fixed in ice-cold acetone for 10 min followed by air drying for a further 10 min. Sections were blocked in protein blocking reagent (Lipshaw Immunon, Pittsburgh U.S.A.) for 10 min and then incubated with biotinylated primary antibody (1 mg/ml), for 30 min at room temperature (RT). All antibodies were biotinylated using the ECL™ protein biotinylation module (Amersham, Baulkham Hills, Australia), as per the manufacturer's instructions. After rinsing with PBS, sections were incubated with a streptavidin horseradish peroxidase complex for a further 30 min (Silenus, Melbourne, Australia). Following a final PBS wash the sections were exposed to 3-amino-9-ethylcarbozole (AEC) substrate (0.1 M acetic acid, 0.1 M sodium acetate, 0.02 M AEC (Sigma Chemical Co., St Louis, MO)) in the presence of hydrogen peroxide for 30 min. Sections were rinsed with water and counterstained with hematoxylin for 5 min and mounted.
# (§2) Bound antibody was detected using the Dako Envision™+HRP detection system as per manufacturer's instructions. Sections were finally rinsed with water, counterstained with hematoxylin and mounted.
# xenograft U87MG (native) = assay: immunohistochemistry of xenograft sections; parameters: species or system human
# Protocol: as §1, §2
# U87MG brain xenografts = assay: systemic treatment of intracranial xenografts; parameters: species or system nude mice; details: mouse, in vivo
# Protocol: U87MG.ΔEGFR cells (1×10^5) or 5×10^5 LN-Z308.ΔEGFR, A1207.ΔEGFR, U87MG, U87MG.DK, and U87MG.wtEGFR cells in 5 μl of PBS were implanted into the right corpus stratum of nude mice brains as described previously (Mishima et al. (2000) A peptide derived from the non-receptor binding region of urokinase plasminogen activator inhibits glioblastoma growth and angiogenesis in vivo in combination with cisplatin. Proc. Natl. Acad. Sci. U.S.A. 97, 8484-8489).
# U87MG cells = assay: FACS binding to cell lines; format: cell-based, human
# Protocol: Briefly, cells were labelled with the relevant antibody (10 μg/ml) followed by fluorescein-conjugated goat anti-mouse IgG (1:100 dilution; Calbiochem San Diego, CA, USA; Becton-Dickinson PharMingen, San Diego, CA, US) as described previously (Nishikawa et al., 1994). FACS data was obtained on a Coulter Epics Elite ESP by observing a minimum of 5,000 events and analyzed using EXPO (version 2) for Windows.
# Stained cells were analyzed with a FACS Calibur™ using Cell Quest™ software (Becton-Dickinson PharMingen). […] Mouse IgG2a or IgG2b was used as an isotype control.
# Cells (1 3 10 6) were incubated with 5 μg/ml of the appropriate antibody or an isotype-matched negative control in PBS containing 1% HSA for 30 min at 4° C. After three washes with PBS/1% HSA, cells were incubated an additional 30 min at 4° C. with FTTC-coupled goat anti-mouse antibody (1:100 dilution; Calbiochem, San Diego, CA). After three subsequent washes, cells were analyzed on an Epics Elite ESP (Beckman Coulter, Hialeah, FL) by observing a minimum of 20,000 events and analyzed using EXPO (version 2) for Windows.
# A431 cells = assay: FACS binding to cell lines; format: cell-based, human
# Source text: FACS data was obtained on a Coulter Epics Elite ESP by observing a minimum of 5,000 events and analyzed using EXPO (version 2) for Windows.
# As described previously, A431 cells are human squamous carcinoma cells and express high levels of wtEGFR.
# The estimates of antibody concentration determined for each sample by the OD Δ280 nm were utilised for FACS analyses with the adenocarcinoma cell line A431 cells (containing EGFR gene amplification). […] Control for secondary antibody alone was also included [Goat anti hu-IgG (Fc specific) FITC conjugated].
# [3] = molecular target: T2, biotinylated de2-7 specific peptide (Homo sapiens, UniProt P00533, DELINS30-297G); assay: ELISA on de2-7 peptide; format: binding
# T2 construct: purchased Auspep, Melbourne, Australia; host or cells: synthetic (Fmoc chemistry)
# Source text: In the second assay, the biotinylated de2-7 specific peptide (Biotin-[…] (SEQ ID NO:5)) was bound to ELISA plates precoated with streptavidin (Pierce, Rockford, Illinois). Antibodies were bound and detected as in the first assay.
# [4] = test system: U87MG expressing wild-type EGFR; assay: protein A mixed hemadsorption; format: cell-based, human; details: undiluted supernatant less than 10%
# Protocol: As expected, the 528 antibody stained both the U87MG.Δ2-7 and U87MG.wtEGFR cell lines (FIG. 1). As expected, the 528 antibody stained U87MG.Δ2-7 with a higher intensity than the parental cell as it binds both the de2-7 and wild-type receptors that are co-expressed in these cells (FIG. 1). Similar results were obtained using a protein A mixed hemadsorption which detects surface bound IgG by appearance of […] (group O) to target cells.
# [5] = molecular target: T3, EGFR from U87MG.wtEGFR and A431 cells (Homo sapiens, UniProt P00533); assay: immunoprecipitation and Endo H digestion; format: binding
# T3 construct: expressed in transfected cells; host or cells: U87MG.wtEGFR (transfected with wtEGFR) and A431 (endogenous, amplified gene)
# Protocol: This possibility was tested by immunoprecipitating the EGFR from different cells lines labelled overnight with ^35S methionine/cysteine and then subjecting the resultant precipitates to Endoglycosidase H (Endo H) digestion. This enzyme preferentially removes high mannose type carbohydrates (i.e. immature glycosylation) from proteins while leaving complex carbohydrates (i.e. mature glycosylation) intact.
# [6] = molecular target: T4, EGFR extracted from DU145 cells (Homo sapiens, UniProt P00533); assay: immunoprecipitation and immunoblot; format: binding
# T4 construct: endogenous in cells; host or cells: DU145
# Protocol: Cells were lysed with lysis buffer (1% Triton X-IOO, 30 mM HEPES, 150 mM NaCl, […] 4-(2-aminoethyl) benzenesulfonylfluoride, 150 nM aprotinin, 1 mM E-64 protease inhibitor, 0.5 mM EDTA, and 1 mM leupeptin, pH 7.4) for 20 minutes, clarified by centrifugation at 14,000×g for 30 minutes, immunoprecipitated with the relevant antibodies at a final concentration of 5 μg/ml for 60 minutes and captured by Sepharose-A beads overnight. Samples were then eluted with 2× NuPAGE® SDS Sample Buffer (Invitrogen), resolved on NuPAGE® gels (either 3-8% or 4-12%), electro-transferred onto Immobilon®-P transfer membrane (Millipore) then probed with the relevant antibodies before detection by chemoluminescence radiography.
# Clearly, mAb806 and mAb175 can recognize only a small proportion of the EGFR on cells in the presence of an autocrine stimulation loop.
# deglycosylated sEGFR = molecular target: T5, deglycosylated sEGFR (Homo sapiens, UniProt P00533); assay: immunoblot of PNGase F treated sEGFR; format: binding
# T5 construct: sEGFR is the recombinant extracellular domain (amino acids 1-621) of the wild-type EGFR; host or cells: CHO cells
# Protocol: To determine if carbohydrate structures are directly involved in the mAb806 epitope, the recombinant sEGFR expressed in CHO cells was treated with PNGase F to remove N-linked glycosylation.
molecule,measurement,setting,value
B1,FACS staining,[1],clearly stained both cell lines but at a lower level
same,mean tumor volume,DU145 xenografts,605 mm^3
same,tumor volume,A431 xenografts,significant reduction of tumor volume
same,positive cases,[2]; 46 glioblastomas,58.7%
same,positive cases/cases,[2]; 46 glioblastomas,27/46
same,immunohistochemical staining,"[2]; case with EGFR Amp. N, A2",++++ (++++=>75%)
same,immunohistochemical staining,"[2]; cases with EGFR Amp. A, WT",++++ (++++=>75%)
same,immunohistochemical staining,"[2]; cases with EGFR Amp. N, mutation nd",neg.
same,immunohistochemical staining,"[2]; cases with EGFR Amp. nd, mutation nd",neg.
same,cases with homogeneous immunoreactivity,[2]; mAb806: in more than 50% of the tumor,22
same,reactivity after immunoblotting,wtEGFR,bound to the wtEGFR
same,immunohistochemical staining,xenograft A431,pos. (predominantly
same,immunohistochemical staining,xenograft U87MG (native),undetectable
same,effect on survival,U87MG brain xenografts,did not extend survival
same,FACS staining,U87MG cells,binding levels similar to the control antibody; also recorded: not with U87MG cells
same,FACS staining,A431 cells,"Low, but highly reproducible, binding"
same,binding to unique de2-7 EGFR peptide,[3],Neither mAb806 nor the 528 antibody bound to the peptide
same,reactivity,[4],no significant reactivity
same,Endo H sensitivity of precipitated EGFR,[5],sensitive to Endo H
same,immunoprecipitation of EGFR,[6],immunoprecipitate a small proportion of the EGFR
same,binding to deglycosylated sEGFR,deglycosylated sEGFR,clearly bound the deglycosylated material
